The results in this text go back to patent publication EP4671269A1.

Values joined by “and” are separate entries in the source; they are usually repeats but may differ in a detail not shown here. Identical values can stand only once.

What all share (details): remark: other sources report otherwise
For assay [1], the target named is T1, TGF-β2, P61812.
T1 chain: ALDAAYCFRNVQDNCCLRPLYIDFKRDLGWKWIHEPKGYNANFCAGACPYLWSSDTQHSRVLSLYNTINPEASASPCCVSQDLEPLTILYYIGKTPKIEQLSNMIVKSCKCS
The experiment in a line: indirect ELISA; 0 (blank). For orientation: In an ELISA, binding on a coated surface is turned into a signal by an enzyme label.

Assay [2] addresses T1, TGF-β2, P61812. Put plainly: indirect ELISA; […] diluted 1:3.
Assay [3] addresses T1, TGF-β2, P61812. The experiment in a line: indirect ELISA; […] diluted 1:243.
Assay [4] concerns the target T1, TGF-β2, P61812. Put plainly: indirect ELISA, TGF-β2 coated.
Assay [5] concerns the target T1, TGF-β2, P61812. The experiment in a line: indirect ELISA; […] diluted 1:729.
For assay [6], the target named is T1, TGF-β2, P61812. The experiment in a line: indirect ELISA; […].
Assay [7] deals with T1, TGF-β2, P61812. Put plainly: indirect ELISA; […] diluted 1:27.
Assay [8] concerns the target T1, TGF-β2, P61812. Put plainly: indirect ELISA; […] diluted 1:81.
Assay [9] deals with T1, TGF-β2, P61812. Put plainly: indirect ELISA; […] diluted 1:9.

B1: TGF-βRII-mFc, P37173 24-159 (Fc fusion, UniProt P37173 24-159, looked up, not shown: a dimerising Fc or GST)
chain: IPPHVQKSVNNDMIVTDNNGAVKFPQLCKFCDVRFSTCDNQKSCMSNCSITSICEKPQEVCVAVWRKNDENITLETVCHDPKLPYHDFILEDAASPKCIMKEKKKPGETFFMCSCSSDECNDNIIFSEEYNTSNPD
As for B1, the OD450 is 0.176 OD and 0.16 OD in assay [1]; 1.34 OD and 1.32 OD in assay [2]; 0.202 OD and 0.158 OD in assay [3]; 0.184 OD and 0.152 OD in assay [5]; 1.46 OD and 1.44 OD in [6]; 0.432 OD and 0.462 OD in assay [7]. For the same molecule, the OD450 in assay [8] was 0.253 OD and 0.211 OD; in assay [9] it was 0.908 OD and 0.925 OD. The EC50 (usually the concentration giving half of the maximal effect) in [4] stood at 1.03 nM.
